# In patent US20210355219A1 (HARPOON THERAPEUTICS, published 2021):
# Target: CD40 on purified human B cells (human, UniProt P25942 21-277)
# Experiment: cell-based or functional assay
# Sequence of CD40 on purified human B cells (P25942 21-277): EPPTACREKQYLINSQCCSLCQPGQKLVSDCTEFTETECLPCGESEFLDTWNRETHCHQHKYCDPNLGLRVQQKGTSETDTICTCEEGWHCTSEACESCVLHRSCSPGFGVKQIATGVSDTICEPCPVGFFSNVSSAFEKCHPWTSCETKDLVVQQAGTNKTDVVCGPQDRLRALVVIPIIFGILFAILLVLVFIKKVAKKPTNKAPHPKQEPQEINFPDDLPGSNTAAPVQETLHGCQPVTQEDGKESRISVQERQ
"Activity shift, B cell activation [fold]","EC50 (M), B cell activation (percentage of CD86 positive B cells, flow cytometry, 48 hours) [M]",Binder
2000,–,"anti-Alb mask070 L040 anti-CD40, C2905, C2764, L040 (-) Protease (bispecific antibody, human IgG1, kappa) heavy: not shown light: EVQLVESGGGLVQPGNSLTLSCAASGFTFSKFGMSWVRQARAASAGQGLEWVSSISGSGRDTLYADSVKGRFTISRDNAKTTLYLQMNSLRPEDTAVYYCTIGGSLSVSSQGTLVTVSSGGGGPQASTGRSGGGGSDIQMTQSPSSVSASVGDRVTITCRASQGIYSWLAWYQQKPGKAPNLLIYTASTLQSGVPSRFSGSGSGTDFTLTISSLQPEDFATYYCQQANIFPLTFGGGTKVEIKRTVAAPSVFIFPPSDEQLKSGTASVVCLLNNFYPREAKVQWKVDNALQSGNSQESVTEQDSKDSTYSLSSTLTLSKADYEKHKVYACEVTHQGLSSPVTKSFNRGEC"
1,1.6e-11,"anti-Alb mask070 L040 anti-CD40, C2905, C2764, L040 (+) Protease (antibody) heavy: not shown light: EVQLVESGGGLVQPGNSLTLSCAASGFTFSKFGMSWVRQARAASAGQGLEWVSSISGSGRDTLYADSVKGRFTISRDNAKTTLYLQMNSLRPEDTAVYYCTIGGSLSVSSQGTLVTVSSGGGGPQASTGRSGGGGSDIQMTQSPSSVSASVGDRVTITCRASQGIYSWLAWYQQKPGKAPNLLIYTASTLQSGVPSRFSGSGSGTDFTLTISSLQPEDFATYYCQQANIFPLTFGGGTKVEIKRTVAAPSVFIFPPSDEQLKSGTASVVCLLNNFYPREAKVQWKVDNALQSGNSQESVTEQDSKDSTYSLSSTLTLSKADYEKHKVYACEVTHQGLSSPVTKSFNRGEC"

# Target: T1, C00703 huCD40::Fc (human)
# T1 construct: also called human CD40 protein; immobilized huCD40
# T1 sequence (chain, as listed by the source limits assumed): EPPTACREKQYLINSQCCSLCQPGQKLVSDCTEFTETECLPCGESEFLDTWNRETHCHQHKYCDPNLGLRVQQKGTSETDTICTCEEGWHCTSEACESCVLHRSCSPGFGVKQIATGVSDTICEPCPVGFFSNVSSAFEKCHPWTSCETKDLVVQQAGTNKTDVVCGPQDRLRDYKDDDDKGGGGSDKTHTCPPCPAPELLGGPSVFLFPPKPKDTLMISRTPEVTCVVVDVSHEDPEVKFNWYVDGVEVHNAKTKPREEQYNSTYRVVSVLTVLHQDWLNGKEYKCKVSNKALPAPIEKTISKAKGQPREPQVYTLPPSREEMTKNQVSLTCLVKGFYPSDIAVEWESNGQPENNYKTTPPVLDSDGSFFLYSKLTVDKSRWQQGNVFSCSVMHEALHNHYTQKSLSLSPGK
# Experiment: BLI (Octet); huCD40::Fc immobilized, masked protein at 100 nM in conditioned media; nm shift relative to unmasked control anti-Alb-anti-CD40
row,Binder,Binding response (% of control)
1,"anti-Alb-CD-2-D07 masked anti-CD40 protein with anti-CD40 heavy chain SEQ ID No. 73 (bispecific antibody, human IgG1, kappa, Built as m2; Signal domain left out; Tested in conditioned media; also called aAlb-CD-2-D07) heavy: not shown light: EVQLVESGGGLVQPGNSLTLSCAASGFTFSKFGMSWVRQARAATAGSGLEWVSSISGSGRDTLYADSVKGRFTISRDNAKTTLYLQMNSLRPEDTAVYYCTIGGSLSVSSQGTLVTVSSGGGGSGGGSGGGGSGGGSDIQMTQSPSSVSASVGDRVTITCRASQGIYSWLAWYQQKPGKAPNLLIYTASTLQSGVPSRFSGSGSGTDFTLTISSLQPEDFATYYCQQANIFPLTFGGGTKVEIKRTVAAPSVFIFPPSDEQLKSGTASVVCLLNNFYPREAKVQWKVDNALQSGNSQESVTEQDSKDSTYSLSSTLTLSKADYEKHKVYACEVTHQGLSSPVTKSFNRGEC",48 % of control
2,"anti-Alb-CD-2-B07 masked anti-CD40 protein with anti-CD40 heavy chain SEQ ID No. 73 (bispecific antibody, human IgG1, kappa, Built as m2; Signal domain left out; Tested in conditioned media; also called aAlb-CD-2-B07) heavy: not shown light: EVQLVESGGGLVQPGNSLTLSCAASGFTFSKFGMSWVRQAVRPRGTGGLEWVSSISGSGRDTLYADSVKGRFTISRDNAKTTLYLQMNSLRPEDTAVYYCTIGGSLSVSSQGTLVTVSSGGGGSGGGSGGGGSGGGSDIQMTQSPSSVSASVGDRVTITCRASQGIYSWLAWYQQKPGKAPNLLIYTASTLQSGVPSRFSGSGSGTDFTLTISSLQPEDFATYYCQQANIFPLTFGGGTKVEIKRTVAAPSVFIFPPSDEQLKSGTASVVCLLNNFYPREAKVQWKVDNALQSGNSQESVTEQDSKDSTYSLSSTLTLSKADYEKHKVYACEVTHQGLSSPVTKSFNRGEC",64 % of control
3,"anti-Alb-CD-1-A09 masked anti-CD40 protein with anti-CD40 heavy chain SEQ ID No. 73 (bispecific antibody, human IgG1, kappa, Built as m2; Signal domain left out; Tested in conditioned media; also called aAlb-CD-1-A09) heavy: not shown light: EVQLVESGGGLVQPGNSLTLSCAASGFTFSKFGMSWVRQAPGSQKPGLEWVSSISGSGRDTLYADSVKGRFTISRDNAKTTLYLQMNSLRPEDTAVYYCTIGGSLSVSSQGTLVTVSSGGGGSGGGSGGGGSGGGSDIQMTQSPSSVSASVGDRVTITCRASQGIYSWLAWYQQKPGKAPNLLIYTASTLQSGVPSRFSGSGSGTDFTLTISSLQPEDFATYYCQQANIFPLTFGGGTKVEIKRTVAAPSVFIFPPSDEQLKSGTASVVCLLNNFYPREAKVQWKVDNALQSGNSQESVTEQDSKDSTYSLSSTLTLSKADYEKHKVYACEVTHQGLSSPVTKSFNRGEC",67 % of control
4,"anti-Alb-CD-2-A10 masked anti-CD40 protein with anti-CD40 heavy chain SEQ ID No. 73 (bispecific antibody, human IgG1, kappa, Built as m2; Signal domain left out; Tested in conditioned media; also called aAlb-CD-2-A10) heavy: not shown light: EVQLVESGGGLVQPGNSLTLSCAASGFTFSKFGMSWVRQAVGTRETSGGLEWVSSISGSGRDTLYADSVKGRFTISRDNAKTTLYLQMNSLRPEDTAVYYCTIGGSLSVSSQGTLVTVSSGGGGSGGGSGGGGSGGGSDIQMTQSPSSVSASVGDRVTITCRASQGIYSWLAWYQQKPGKAPNLLIYTASTLQSGVPSRFSGSGSGTDFTLTISSLQPEDFATYYCQQANIFPLTFGGGTKVEIKRTVAAPSVFIFPPSDEQLKSGTASVVCLLNNFYPREAKVQWKVDNALQSGNSQESVTEQDSKDSTYSLSSTLTLSKADYEKHKVYACEVTHQGLSSPVTKSFNRGEC",65 % of control
5,"anti-Alb-CD-1-F06 masked anti-CD40 protein with anti-CD40 heavy chain SEQ ID No. 73 (bispecific antibody, human IgG1, kappa, Built as m2; Signal domain left out; Tested in conditioned media; also called aAlb-CD-1-F06) heavy: not shown light: EVQLVESGGGLVQPGNSLTLSCAASGFTFSKFGMSWVRQAVRTRRTSGGLEWVSSISGSGRDTLYADSVKGRFTISRDNAKTTLYLQMNSLRPEDTAVYYCTIGGSLSVSSQGTLVTVSSGGGGSGGGSGGGGSGGGSDIQMTQSPSSVSASVGDRVTITCRASQGIYSWLAWYQQKPGKAPNLLIYTASTLQSGVPSRFSGSGSGTDFTLTISSLQPEDFATYYCQQANIFPLTFGGGTKVEIKRTVAAPSVFIFPPSDEQLKSGTASVVCLLNNFYPREAKVQWKVDNALQSGNSQESVTEQDSKDSTYSLSSTLTLSKADYEKHKVYACEVTHQGLSSPVTKSFNRGEC",57 % of control
6,"anti-Alb-CD-2-C05 masked anti-CD40 protein with anti-CD40 heavy chain SEQ ID No. 73 (bispecific antibody, human IgG1, kappa, Built as m2; Signal domain left out; Tested in conditioned media; also called aAlb-CD-2-C05) heavy: not shown light: EVQLVESGGGLVQPGNSLTLSCAASGFTFSKFGMSWVRQALGRHESSVGLEWVSSISGSGRDTLYADSVKGRFTISRDNAKTTLYLQMNSLRPEDTAVYYCTIGGSLSVSSQGTLVTVSSGGGGSGGGSGGGGSGGGSDIQMTQSPSSVSASVGDRVTITCRASQGIYSWLAWYQQKPGKAPNLLIYTASTLQSGVPSRFSGSGSGTDFTLTISSLQPEDFATYYCQQANIFPLTFGGGTKVEIKRTVAAPSVFIFPPSDEQLKSGTASVVCLLNNFYPREAKVQWKVDNALQSGNSQESVTEQDSKDSTYSLSSTLTLSKADYEKHKVYACEVTHQGLSSPVTKSFNRGEC",31 % of control

# Second part, the binder after the results:
row,Binding response (% of control),Binder
1,68 % of control,"anti-Alb-CD-2-D08 masked anti-CD40 protein with anti-CD40 heavy chain SEQ ID No. 73 (bispecific antibody, human IgG1, kappa, Built as m2; Signal domain left out; Tested in conditioned media; also called aAlb-CD-2-D08) heavy: not shown light: EVQLVESGGGLVQPGNSLTLSCAASGFTFSKFGMSWVRQATSWRHERGLEWVSSISGSGRDTLYADSVKGRFTISRDNAKTTLYLQMNSLRPEDTAVYYCTIGGSLSVSSQGTLVTVSSGGGGSGGGSGGGGSGGGSDIQMTQSPSSVSASVGDRVTITCRASQGIYSWLAWYQQKPGKAPNLLIYTASTLQSGVPSRFSGSGSGTDFTLTISSLQPEDFATYYCQQANIFPLTFGGGTKVEIKRTVAAPSVFIFPPSDEQLKSGTASVVCLLNNFYPREAKVQWKVDNALQSGNSQESVTEQDSKDSTYSLSSTLTLSKADYEKHKVYACEVTHQGLSSPVTKSFNRGEC"
2,63 % of control,"anti-Alb-CD-2-F10 masked anti-CD40 protein with anti-CD40 heavy chain SEQ ID No. 73 (bispecific antibody, human IgG1, kappa, Built as m2; Signal domain left out; Tested in conditioned media; also called aAlb-CD-2-F10) heavy: not shown light: EVQLVESGGGLVQPGNSLTLSCAASGFTFSKFGMSWVRQAVGPRETSGGLEWVSSISGSGRDTLYADSVKGRFTISRDNAKTTLYLQMNSLRPEDTAVYYCTIGGSLSVSSQGTLVTVSSGGGGSGGGSGGGGSGGGSDIQMTQSPSSVSASVGDRVTITCRASQGIYSWLAWYQQKPGKAPNLLIYTASTLQSGVPSRFSGSGSGTDFTLTISSLQPEDFATYYCQQANIFPLTFGGGTKVEIKRTVAAPSVFIFPPSDEQLKSGTASVVCLLNNFYPREAKVQWKVDNALQSGNSQESVTEQDSKDSTYSLSSTLTLSKADYEKHKVYACEVTHQGLSSPVTKSFNRGEC"
3,75 % of control,"anti-Alb-CD-2-F09 masked anti-CD40 protein with anti-CD40 heavy chain SEQ ID No. 73 (bispecific antibody, human IgG1, kappa, Built as m2; Signal domain left out; Tested in conditioned media; also called aAlb-CD-2-F09) heavy: not shown light: EVQLVESGGGLVQPGNSLTLSCAASGFTFSKFGMSWVRQAPYSQPTKAGLEWVSSISGSGRDTLYADSVKGRFTISRDNAKTTLYLQMNSLRPEDTAVYYCTIGGSLSVSSQGTLVTVSSGGGGSGGGSGGGGSGGGSDIQMTQSPSSVSASVGDRVTITCRASQGIYSWLAWYQQKPGKAPNLLIYTASTLQSGVPSRFSGSGSGTDFTLTISSLQPEDFATYYCQQANIFPLTFGGGTKVEIKRTVAAPSVFIFPPSDEQLKSGTASVVCLLNNFYPREAKVQWKVDNALQSGNSQESVTEQDSKDSTYSLSSTLTLSKADYEKHKVYACEVTHQGLSSPVTKSFNRGEC"
4,63 % of control,"anti-Alb-CD-2-C11 masked anti-CD40 protein with anti-CD40 heavy chain SEQ ID No. 73 (bispecific antibody, human IgG1, kappa, Built as m2; Signal domain left out; Tested in conditioned media; also called aAlb-CD-2-C11) heavy: not shown light: EVQLVESGGGLVQPGNSLTLSCAASGFTFSKFGMSWVRQALGRRETSVGLEWVSSISGSGRDTLYADSVKGRFTISRDNAKTTLYLQMNSLRPEDTAVYYCTIGGSLSVSSQGTLVTVSSGGGGSGGGSGGGGSGGGSDIQMTQSPSSVSASVGDRVTITCRASQGIYSWLAWYQQKPGKAPNLLIYTASTLQSGVPSRFSGSGSGTDFTLTISSLQPEDFATYYCQQANIFPLTFGGGTKVEIKRTVAAPSVFIFPPSDEQLKSGTASVVCLLNNFYPREAKVQWKVDNALQSGNSQESVTEQDSKDSTYSLSSTLTLSKADYEKHKVYACEVTHQGLSSPVTKSFNRGEC"
5,66 % of control,"anti-Alb-CD-2-D09 masked anti-CD40 protein with anti-CD40 heavy chain SEQ ID No. 73 (bispecific antibody, human IgG1, kappa, Built as m2; Signal domain left out; Tested in conditioned media; also called aAlb-CD-2-D09) heavy: not shown light: EVQLVESGGGLVQPGNSLTLSCAASGFTFSKFGMSWVRQAVRTRGTSGGLEWVSSISGSGRDTLYADSVKGRFTISRDNAKTTLYLQMNSLRPEDTAVYYCTIGGSLSVSSQGTLVTVSSGGGGSGGGSGGGGSGGGSDIQMTQSPSSVSASVGDRVTITCRASQGIYSWLAWYQQKPGKAPNLLIYTASTLQSGVPSRFSGSGSGTDFTLTISSLQPEDFATYYCQQANIFPLTFGGGTKVEIKRTVAAPSVFIFPPSDEQLKSGTASVVCLLNNFYPREAKVQWKVDNALQSGNSQESVTEQDSKDSTYSLSSTLTLSKADYEKHKVYACEVTHQGLSSPVTKSFNRGEC"
6,42 % of control,"anti-Alb-CD-2-D06 masked anti-CD40 protein with anti-CD40 heavy chain SEQ ID No. 73 (bispecific antibody, human IgG1, kappa, Built as m2; Signal domain left out; Tested in conditioned media; also called aAlb-CD-2-D06) heavy: not shown light: EVQLVESGGGLVQPGNSLTLSCAASGFTFSKFGMSWVRQAMNRHENDRGLEWVSSISGSGRDTLYADSVKGRFTISRDNAKTTLYLQMNSLRPEDTAVYYCTIGGSLSVSSQGTLVTVSSGGGGSGGGSGGGGSGGGSDIQMTQSPSSVSASVGDRVTITCRASQGIYSWLAWYQQKPGKAPNLLIYTASTLQSGVPSRFSGSGSGTDFTLTISSLQPEDFATYYCQQANIFPLTFGGGTKVEIKRTVAAPSVFIFPPSDEQLKSGTASVVCLLNNFYPREAKVQWKVDNALQSGNSQESVTEQDSKDSTYSLSSTLTLSKADYEKHKVYACEVTHQGLSSPVTKSFNRGEC"
